Assay results from patent publication US20120077731A1 (Ablynx, published 2012).
Numbering of substitutions follows the chain as printed. Values joined by “and” are separate entries in the source; they are usually repeats but may differ in a detail not shown here. Equal values may be shown once.

T1: Human soluble IL-6R (human, UniProt P08887 20-358)
T1 construct: Soluble recombinant form; biotinylated in some assays; also called hIL-6R; human IL-6R
T1 sequence (looked up): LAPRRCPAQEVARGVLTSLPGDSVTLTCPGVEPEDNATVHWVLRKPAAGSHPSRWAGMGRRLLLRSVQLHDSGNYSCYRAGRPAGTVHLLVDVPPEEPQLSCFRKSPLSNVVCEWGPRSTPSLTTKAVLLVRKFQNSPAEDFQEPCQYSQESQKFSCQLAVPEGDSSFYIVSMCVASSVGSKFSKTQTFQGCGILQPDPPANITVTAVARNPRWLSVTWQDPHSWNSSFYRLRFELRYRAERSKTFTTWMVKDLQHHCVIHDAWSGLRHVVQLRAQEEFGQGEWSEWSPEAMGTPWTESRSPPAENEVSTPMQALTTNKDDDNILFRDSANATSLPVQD

T2: Cyno plasma sIL-6R (cynomolgus monkey, UniProt A0A2K5WN54 60-396)
T2 construct: also called cynomolgus sIL-6R
T2 sequence: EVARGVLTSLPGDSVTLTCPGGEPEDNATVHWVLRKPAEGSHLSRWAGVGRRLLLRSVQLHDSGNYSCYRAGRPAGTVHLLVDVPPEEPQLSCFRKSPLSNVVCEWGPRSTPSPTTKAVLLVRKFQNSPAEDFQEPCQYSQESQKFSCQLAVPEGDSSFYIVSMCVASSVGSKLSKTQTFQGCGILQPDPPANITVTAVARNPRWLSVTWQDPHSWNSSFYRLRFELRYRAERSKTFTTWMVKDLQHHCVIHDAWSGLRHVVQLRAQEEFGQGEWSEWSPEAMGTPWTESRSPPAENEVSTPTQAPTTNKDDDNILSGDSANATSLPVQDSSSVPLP

T3: Human plasma sIL-6R (human, UniProt P08887 20-355, limits assumed)
T3 construct: also called plasma-derived human IL-6R
T3 sequence (looked up): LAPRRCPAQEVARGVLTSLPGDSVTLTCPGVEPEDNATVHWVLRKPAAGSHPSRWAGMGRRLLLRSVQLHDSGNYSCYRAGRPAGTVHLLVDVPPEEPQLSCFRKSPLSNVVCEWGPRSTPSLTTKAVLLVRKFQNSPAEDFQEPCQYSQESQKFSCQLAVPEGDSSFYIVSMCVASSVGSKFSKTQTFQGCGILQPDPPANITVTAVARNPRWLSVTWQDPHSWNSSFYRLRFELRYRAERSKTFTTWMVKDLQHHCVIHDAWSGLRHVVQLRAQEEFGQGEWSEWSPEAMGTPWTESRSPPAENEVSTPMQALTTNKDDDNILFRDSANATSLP

T4: Human membrane IL-6R on cells (human, UniProt P08887 20-468)
T4 sequence (looked up): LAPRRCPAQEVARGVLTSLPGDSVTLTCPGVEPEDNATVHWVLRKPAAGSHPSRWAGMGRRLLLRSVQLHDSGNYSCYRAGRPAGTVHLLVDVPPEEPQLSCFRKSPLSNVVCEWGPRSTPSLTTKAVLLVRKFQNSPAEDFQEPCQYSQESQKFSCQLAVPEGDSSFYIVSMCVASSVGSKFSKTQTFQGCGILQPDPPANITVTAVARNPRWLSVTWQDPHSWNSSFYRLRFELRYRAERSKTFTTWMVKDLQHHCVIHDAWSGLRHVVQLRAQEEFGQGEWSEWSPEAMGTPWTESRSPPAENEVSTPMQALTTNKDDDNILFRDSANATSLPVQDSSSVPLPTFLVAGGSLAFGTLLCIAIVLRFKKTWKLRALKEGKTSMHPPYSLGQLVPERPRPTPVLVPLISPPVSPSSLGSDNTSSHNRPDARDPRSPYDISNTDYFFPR

T5: Cyno IL-6R (cynomolgus monkey, UniProt A0A2K5WN54 60-396)
T5 construct: also called cynomolgus monkey IL-6R; recombinant cyno sIL-6R
T5 sequence: T2 sequence

T6: Mouse IL-6R (mouse, UniProt P22272 20-364, limits assumed)
T6 construct: also called mouse sIL-6R
T6 sequence (looked up): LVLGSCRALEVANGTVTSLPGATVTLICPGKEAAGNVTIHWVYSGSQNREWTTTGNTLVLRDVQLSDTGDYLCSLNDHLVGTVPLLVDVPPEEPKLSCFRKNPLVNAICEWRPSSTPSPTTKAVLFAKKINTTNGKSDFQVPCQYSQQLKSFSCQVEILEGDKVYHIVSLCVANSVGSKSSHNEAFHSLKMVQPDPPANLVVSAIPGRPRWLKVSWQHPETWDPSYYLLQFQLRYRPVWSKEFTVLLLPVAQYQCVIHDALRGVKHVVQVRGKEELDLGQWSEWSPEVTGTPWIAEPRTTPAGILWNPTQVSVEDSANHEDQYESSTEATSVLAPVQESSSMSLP

B1: PMP20E10 (VHH)
VHH: EVQLVESGGGLVQPGGSLRLSCAASGSVFKINVMAWYRQAPGKGRELVAGIVSGGSTSYADSVKGRFTISRDNAKNTLYLQMNSLRPEDTAVYYCAFITTESDYDLGRRYWGQGTLVTVSS
notes: not shown: c-myc and (His)6 tags
B2: PMP21A10 (VHH)
VHH: B1 VHH with V28I, S53T
notes: as for B1
B3: PMP20F6 (VHH)
VHH: B1 VHH with E101N
notes: as for B1
B4: PMP21D11 (VHH)
VHH: B1 VHH with S53T
notes: as for B1
B5: IL6R03 (VHH)
VHH: EVQLVESGGGLVQAGGSLRLSCAASGSIFKVNAMGWYRQAPGKQRELVAGIISGGSTNYADSVKGRLTISRDNAKNTVYLQMNSLKPEDTAVYYCSFVTTNSDYDLGRDYWGQGTQVTVSS
notes: also called PMP31A4; not shown: C-terminal c-myc and (His)6 tags
B6: IL6R61 (VHH)
VHH: B5 VHH with A14P, Q44G, K86R, Q116L
B7: IL6R63 (VHH)
VHH: B5 VHH with A14P, Q44G, V78L, K86R, Q116L
B8: IL6R64 (VHH)
VHH: B5 VHH with A14P, Q44G, K86R, S96A, Q116L
B9: IL6R62 (VHH)
VHH: B5 VHH with A14P, Q44G, L67F, K86R, Q116L
B10: IL6R201 (VHH)
VHH: EVQLVESGGGLVQPGGSLRLSCAASGFTFSDYDIGWFRQAPGKGREGVSGISSSDGNTYYADSVKGRFTISRDNAKNTLYLQMNSLRPEDTAVYYCAAEPPDSSWYLDGSPEFFKYWGQGTLVTVSS
notes: also called tagless version of IL6R75; 16R201/75

How the values were obtained:
Human soluble IL-6R [1] = molecular target: T1, Human soluble IL-6R; assay: Biacore T100
Human soluble IL-6R [2] = molecular target: T1, Human soluble IL-6R; assay: Biacore T100; value marked estimated
Human soluble IL-6R [3] = molecular target: T1, Human soluble IL-6R; assay: Biacore T100, IL-6R covalently coupled
Cyno plasma sIL-6R [4] = molecular target: T2, Cyno plasma sIL-6R; assay: plasma potency assay, cyno plasma, 2.4 nM IL6; blocked ligand IL-6
Experimental: (§1) All 5 affinity matured Nanobodies and the sequence optimized Nanobody were also tested in a plasma potency assay. […] TMB was used as substrate.

Human plasma sIL-6R [5] = molecular target: T3, Human plasma sIL-6R; assay: plasma potency assay, human plasma, 42 nM IL6; blocked ligand IL-6
Experimental: as §1

Human plasma sIL-6R [6] = molecular target: T3, Human plasma sIL-6R; assay: plasma potency assay, human plasma, 2.4 nM IL6; blocked ligand IL-6
Experimental: as §1

[7] = molecular target: T4, Human membrane IL-6R on cells; assay: cell-based or functional assay
[8] = molecular target: T4, Human membrane IL-6R on cells; assay: cell-based or functional assay; remark: listed apart in the source
[9] = molecular target: T4, Human membrane IL-6R on cells; assay: cell-based or functional assay; remark: listed apart in the source
[10] = molecular target: T4, Human membrane IL-6R on cells; assay: cell-based or functional assay; remark: listed apart in the source
Human soluble IL-6R [11] = molecular target: T1, Human soluble IL-6R; assay: Biacore off-rate, periplasmic extract
Human soluble IL-6R [12] = molecular target: T1, Human soluble IL-6R; assay: Biacore, binding to IL-6R (parent value)
Human soluble IL-6R [13] = molecular target: T1, Human soluble IL-6R; assay: SPR Biacore 3000, IL-6R amine-coupled to CM5
Experimental: (§2) Nanobodies were injected at 5 different concentrations between 1 and 50 nM. Flow rate was 45 μl/min in all experiments. Association and dissociation phase were 3 and 10 min, respectively. The chip was regenerated using Glycine/HCl pH 1.5.

Cyno IL-6R = molecular target: T5, Cyno IL-6R; assay: SPR Biacore 3000, cyno IL-6R amine-coupled to CM5
Experimental: Remaining reactive groups were inactivated. […] Each sample was injected for 4 min at a flow rate of 45 μl/min to allow for binding to chip-bound antigen. Next, binding buffer without Nanobody was sent over the chip at the same flow rate to allow for dissociation of bound Nanobody.

Human soluble IL-6R [14] = molecular target: T1, Human soluble IL-6R; assay: Alphascreen, inhibition of bio-IL-6 binding to IL-6R
Experimental: (§3) Finally streptavidin donor beads were added and after 1 hour incubator the plate was read on the Envision microplate reader.

Human soluble IL-6R [15] = molecular target: T1, Human soluble IL-6R; assay: summary table C-13 of Nanobody characteristics, Kd on IL-6R
Experimental: as §2

Human soluble IL-6R [16] = molecular target: T1, Human soluble IL-6R; assay: inhibition of the IL-6/IL-6R interaction, summary table C-13
Experimental: as §3

Human soluble IL-6R [17] = molecular target: T1, Human soluble IL-6R; assay: competition for IL-6R, competitor reference Fab, summary table C-13
Human soluble IL-6R [18] = molecular target: T1, Human soluble IL-6R; assay: Alphascreen, 100 nM Nanobody, 0.4 nM bio-IL-6R; competitor: reference Fab
Mouse IL-6R = molecular target: T6, Mouse IL-6R; assay: ELISA: plate coated with 1 µg/ml mouse IL-6R, 500 nM Nanobody, anti-myc + anti-mouse-HRP
Experimental: Detection was performed with anti-myc and anti-mouse-HRP as first and second antibody respectively.

Human soluble IL-6R [19] = molecular target: T1, Human soluble IL-6R; assay: Alphascreen IL-6/IL-6R competition with purified Nanobody; row EC50 of the table, axis [inhibitor], M; blocked ligand IL-6
Human soluble IL-6R [20] = molecular target: T1, Human soluble IL-6R; assay: Alphascreen IL-6/IL-6R competition (IL-6R 0.3 nM, bio-IL-6 3 nM); row EC50 of the fit table, axis [competitor], M; blocked ligand IL-6
Human soluble IL-6R [21] = molecular target: T1, Human soluble IL-6R; assay: Biacore, binding to IL-6R
Human soluble IL-6R [22] = molecular target: T1, Human soluble IL-6R; assay: Alphascreen, inhibition of bio-IL-6 binding to IL-6R; remark: listed apart in the source
Experimental: Finally streptavidin donor beads were added and after 1 hour incubation the plate was read on the Envision microplate reader. Parental clones were included as reference.

Cyno plasma sIL-6R [23] = molecular target: T2, Cyno plasma sIL-6R; assay: plasma potency ELISA, cyno plasma + human IL-6 50 ng/mL; sIL-6R captured on BN-12, bound IL-6 detected; blocked ligand IL-6
Human plasma sIL-6R [24] = molecular target: T3, Human plasma sIL-6R; assay: plasma potency ELISA, human plasma + human IL-6 50 ng/mL; sIL-6R captured on BN-12, bound IL-6 detected; blocked ligand IL-6

Row | Binder | Kd (Human soluble IL-6R [1]) [nM] | kon (Human soluble IL-6R [2]) [M⁻¹ s⁻¹] | koff (Human soluble IL-6R [3]) [s⁻¹] | IC50 (Cyno plasma sIL-6R [4]) [nM] | IC50 (read off the curve) (Human plasma sIL-6R [5]) [nM] | IC50 (Human plasma sIL-6R [6]) [nM] | IC50 (Human soluble IL-6R [20]) [nM] | Kd (Human soluble IL-6R [21]) [nM] | koff (Human soluble IL-6R [21]) [s⁻¹] | kon (Human soluble IL-6R [21]) [M⁻¹ s⁻¹] | fold difference of IC50 to IL6R03 (Human soluble IL-6R [22]) [fold] | further results
1 | B1 | 0.033 | ~1e+06 | 3.3e-05 | 0.1 | ~0.4 | 0.13 | – | – | – | – | – | –
2 | B2 | 0.012 | ~1e+06 | 1.2e-05 | 0.08 | ~0.4 | 0.1 | – | – | – | – | – | –
3 | B3 | 0.033 | ~1e+06 | 3.3e-05 | 0.07 | ~0.4 | 0.13 | – | – | – | – | – | –
4 | B4 | 0.035 | ~1e+06 | 3.5e-05 | – | ~0.4 | 0.13 | – | – | – | – | – | –
5 | B5 | – | – | – | – | – | – | 0.187 | – | – | – | – | IC50 (nM) + HSA, XG-1 cell proliferation [7]: 17.5 nM; IC50 (nM), XG-1 cell proliferation [7]: 16.2 nM; IC50 (nM), TF1 cell proliferation [8]: 62.1 nM; IC50 (nM) XG-1 [9]: 16.2 nM; IC50 values (nM), XG-1 assay [10]: 17 nM; koff (Human soluble IL-6R [11]): 0.0016 s⁻¹; Kd (Human soluble IL-6R [12]): 3 nM; Kd (Human soluble IL-6R [13]): 3 nM; koff (Human soluble IL-6R [13]): 0.00147 s⁻¹ and 0.0016 s⁻¹; kon (Human soluble IL-6R [13]): 484000 M⁻¹ s⁻¹; Kd (Cyno IL-6R): 4.4 nM; koff (Cyno IL-6R): 0.00164 s⁻¹; kon (Cyno IL-6R): 370000 M⁻¹ s⁻¹; IC50 (Human soluble IL-6R [14]): 0.716 nM; Kd (Human soluble IL-6R [15]): 3 nM; IC50 (Human soluble IL-6R [16]): 0.72 nM; Ref Fab competition (%) (Human soluble IL-6R [17]): 5%; Residual reference-Fab binding to IL-6R (%) (Human soluble IL-6R [18]): 5%; binding result (Mouse IL-6R): no binding (tested: 500 nM); IC50 (Human soluble IL-6R [19]): 0.105 nM
6 | B6 | – | – | – | – | – | – | 0.336 | 2 | 0.0017 | 850000 | ≤ 2 | –
7 | B7 | – | – | – | – | – | – | 0.65 | 3.7 | 0.00365 | 990000 | ~4 | –
8 | B8 | – | – | – | – | – | – | 0.108 | – | 0.001 | – | ≤ 2 | –
9 | B9 | – | – | – | – | – | – | 0.28 | 2.2 | 0.00207 | 929000 | ≤ 2 | –
10 | B10 | – | – | – | – | – | – | – | – | – | – | – | Kd (Cyno IL-6R): 28.1 nM; koff (Cyno IL-6R): 0.00611 s⁻¹; kon (Cyno IL-6R): 218000 M⁻¹ s⁻¹; IC50 (read off the curve) (Cyno plasma sIL-6R [23]): ~0.6 nM; IC50 (read off the curve) (Human plasma sIL-6R [24]): ~0.04 nM
